Source: US20210284734A1 (SYMPHOGEN A S, published 2021)

Tests used:
Test in all cases: SPR, Fab on captured PD-1-Fc;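 also: Alanine-scan PD-1 Fc fusions expressed transiently in ExpiCHO, captured on anti-human IgG Fc surface in IBIS MX96, anti-PD-1 Fab association 15 min, dissociation 30 min, Langmuir 1:1 fit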
human PD-1 ECD-Fc G119A = target: T1, human PD-1 ECD-Fc G119A (human, UniProt Q15116 21-170)
T1 construct: not shown: human IgG1 Fc, residues P101-K330

human PD-1 ECD-Fc S159A = target: T2, human PD-1 ECD-Fc S159A (human, UniProt Q15116 21-170)
T2 construct: not shown: human IgG1 Fc, residues P101-K330
T2 sequence (Q15116 21-170 S159A): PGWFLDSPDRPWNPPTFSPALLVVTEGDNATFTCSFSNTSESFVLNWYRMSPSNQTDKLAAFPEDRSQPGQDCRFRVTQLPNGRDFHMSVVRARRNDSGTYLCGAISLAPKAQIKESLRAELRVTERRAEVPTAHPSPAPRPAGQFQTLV

human PD-1 ECD-Fc E136A = target: T3, human PD-1 ECD-Fc E136A (human, UniProt Q15116 21-170)
T3 construct: not shown: human IgG1 Fc, residues P101-K330
T3 sequence (Q15116 21-170 E136A): as the sequence (Q15116 21-170 S159A) above, with E116A, A139S counted along it

human PD-1 ECD-Fc V64K = target: T4, human PD-1 ECD-Fc V64K (human, UniProt Q15116 21-170)
T4 construct: also called Rat mutation V64K; not shown: human IgG1 Fc, residues P101-K330

human PD-1 ECD-Fc E61A = target: T5, human PD-1 ECD-Fc E61A (human, UniProt Q15116 21-170)
T5 construct: not shown: human IgG1 Fc, residues P101-K330
T5 sequence (Q15116 21-170 E61A): as the sequence (Q15116 21-170 S159A) above, with E41A, A139S counted along it

human PD-1 ECD-Fc Q88A = target: T6, human PD-1 ECD-Fc Q88A (human, UniProt Q15116 21-170)
T6 construct: not shown: human IgG1 Fc, residues P101-K330
T6 sequence (Q15116 21-170 Q88A): as the sequence (Q15116 21-170 S159A) above, with Q68A, A139S counted along it

human PD-1 ECD-Fc T98A = target: T7, human PD-1 ECD-Fc T98A (human, UniProt Q15116 21-170)
T7 construct: not shown: human IgG1 Fc, residues P101-K330

human PD-1 ECD-Fc G22A = target: T8, human PD-1 ECD-Fc G22A (human, UniProt Q15116 21-170)
T8 construct: not shown: human IgG1 Fc, residues P101-K330
T8 sequence (Q15116 21-170 G22A): as the sequence (Q15116 21-170 S159A) above, with G2A, A139S counted along it

human PD-1 ECD-Fc T76A = target: T9, human PD-1 ECD-Fc T76A (human, UniProt Q15116 21-170)
T9 construct: not shown: human IgG1 Fc, residues P101-K330
T9 sequence (Q15116 21-170 T76A): as the sequence (Q15116 21-170 S159A) above, with T56A, A139S counted along it

human PD-1 ECD-Fc P28L = target: T10, human PD-1 ECD-Fc P28L (human, UniProt Q15116 21-170)
T10 construct: also called Rat mutation P28L; not shown: human IgG1 Fc, residues P101-K330
T10 sequence (Q15116 21-170 P28L): as the sequence (Q15116 21-170 S159A) above, with P8L, A139S counted along it

human PD-1 ECD-Fc G90A = target: T11, human PD-1 ECD-Fc G90A (human, UniProt Q15116 21-170)
T11 construct: not shown: human IgG1 Fc, residues P101-K330

human PD-1 ECD-Fc T59A = target: T12, human PD-1 ECD-Fc T59A (human, UniProt Q15116 21-170)
T12 construct: not shown: human IgG1 Fc, residues P101-K330
T12 sequence (Q15116 21-170 T59A): as the sequence (Q15116 21-170 S159A) above, with T39A, A139S counted along it

human PD-1 ECD-Fc G103A = target: T13, human PD-1 ECD-Fc G103A (human, UniProt Q15116 21-170)
T13 construct: not shown: human IgG1 Fc, residues P101-K330

human PD-1 ECD-Fc T153A = target: T14, human PD-1 ECD-Fc T153A (human, UniProt Q15116 21-170)
T14 construct: not shown: human IgG1 Fc, residues P101-K330
T14 sequence (Q15116 21-170 T153A): as the sequence (Q15116 21-170 S159A) above, with T133A, A139S counted along it

human PD-1 ECD-Fc D77A = target: T15, human PD-1 ECD-Fc D77A (human, UniProt Q15116 21-170)
T15 construct: not shown: human IgG1 Fc, residues P101-K330
T15 sequence (Q15116 21-170 D77A): as the sequence (Q15116 21-170 S159A) above, with D57A, A139S counted along it

human PD-1 ECD-Fc P89A = target: T16, human PD-1 ECD-Fc P89A (human, UniProt Q15116 21-170)
T16 construct: not shown: human IgG1 Fc, residues P101-K330
T16 sequence (Q15116 21-170 P89A): as the sequence (Q15116 21-170 S159A) above, with P69A, A139S counted along it

human PD-1 ECD-Fc Q167A = target: T17, human PD-1 ECD-Fc Q167A (human, UniProt Q15116 21-170)
T17 construct: label printed under 'Rat mutation', values in r90; not shown: human IgG1 Fc, residues P101-K330
T17 sequence (Q15116 21-170 Q167A): as the sequence (Q15116 21-170 S159A) above, with A139S, Q147A counted along it

human PD-1 ECD-Fc S87A = target: T18, human PD-1 ECD-Fc S87A (human, UniProt Q15116 21-170)
T18 construct: not shown: human IgG1 Fc, residues P101-K330
T18 sequence (Q15116 21-170 S87A): as the sequence (Q15116 21-170 S159A) above, with S67A, A139S counted along it

human PD-1 ECD-Fc S157A = target: T19, human PD-1 ECD-Fc S157A (human, UniProt Q15116 21-170)
T19 construct: not shown: human IgG1 Fc, residues P101-K330
T19 sequence (Q15116 21-170 S157A): as the sequence (Q15116 21-170 S159A) above, with S137A, A139S counted along it

human PD-1 ECD-Fc A149G = target: T20, human PD-1 ECD-Fc A149G (human, UniProt Q15116 21-170)
T20 construct: not shown: human IgG1 Fc, residues P101-K330
T20 sequence (Q15116 21-170 A149G): as the sequence (Q15116 21-170 S159A) above, with A129G, A139S counted along it

human PD-1 ECD-Fc G164A = target: T21, human PD-1 ECD-Fc G164A (human, UniProt Q15116 21-170)
T21 construct: not shown: human IgG1 Fc, residues P101-K330
T21 sequence (Q15116 21-170 G164A): as the sequence (Q15116 21-170 S159A) above, with A139S, G144A counted along it

human PD-1 ECD-Fc D48A = target: T22, human PD-1 ECD-Fc D48A (human, UniProt Q15116 21-170)
T22 construct: not shown: human IgG1 Fc, residues P101-K330
T22 sequence (Q15116 21-170 D48A): as the sequence (Q15116 21-170 S159A) above, with D28A, A139S counted along it

human PD-1 ECD-Fc P162A = target: T23, human PD-1 ECD-Fc P162A (human, UniProt Q15116 21-170)
T23 construct: not shown: human IgG1 Fc, residues P101-K330

human PD-1 ECD-Fc H155A = target: T24, human PD-1 ECD-Fc H155A (human, UniProt Q15116 21-170)
T24 construct: not shown: human IgG1 Fc, residues P101-K330
T24 sequence (Q15116 21-170 H155A): as the sequence (Q15116 21-170 S159A) above, with H135A, A139S counted along it

human PD-1 ECD-Fc S73A = target: T25, human PD-1 ECD-Fc S73A (human, UniProt Q15116 21-170)
T25 construct: not shown: human IgG1 Fc, residues P101-K330
T25 sequence (Q15116 21-170 S73A): as the sequence (Q15116 21-170 S159A) above, with S53A, A139S counted along it

human PD-1 ECD-Fc C93A = target: T26, human PD-1 ECD-Fc C93A (human, UniProt Q15116 21-170)
T26 construct: not shown: human IgG1 Fc, residues P101-K330
T26 sequence (Q15116 21-170 C93A): as the sequence (Q15116 21-170 S159A) above, with C73A, A139S counted along it

human PD-1 ECD-Fc A50G = target: T27, human PD-1 ECD-Fc A50G (human, UniProt Q15116 21-170)
T27 construct: not shown: human IgG1 Fc, residues P101-K330

human PD-1 ECD-Fc A163G = target: T28, human PD-1 ECD-Fc A163G (human, UniProt Q15116 21-170)
T28 construct: not shown: human IgG1 Fc, residues P101-K330
T28 sequence (Q15116 21-170 A163G): as the sequence (Q15116 21-170 S159A) above, with A139S, A143G counted along it

human PD-1 ECD-Fc N116A = target: T29, human PD-1 ECD-Fc N116A (human, UniProt Q15116 21-170)
T29 construct: not shown: human IgG1 Fc, residues P101-K330
T29 sequence (Q15116 21-170 N116A): as the sequence (Q15116 21-170 S159A) above, with N96A, A139S counted along it

human PD-1 ECD-Fc K131A = target: T30, human PD-1 ECD-Fc K131A (human, UniProt Q15116 21-170)
T30 construct: not shown: human IgG1 Fc, residues P101-K330
T30 sequence (Q15116 21-170 K131A): as the sequence (Q15116 21-170 S159A) above, with K111A, A139S counted along it

human PD-1 ECD-Fc S60A = target: T31, human PD-1 ECD-Fc S60A (human, UniProt Q15116 21-170)
T31 construct: not shown: human IgG1 Fc, residues P101-K330
T31 sequence (Q15116 21-170 S60A): as the sequence (Q15116 21-170 S159A) above, with S40A, A139S counted along it

T1 sequence (Q15116 21-170 G119A): as the sequence (Q15116 21-170 S159A) above, with G99A, A139S counted along it

KD mutant/KD wild-type (human PD-1 ECD-Fc G119A): 0.4 ratio
KD mutant/KD wild-type (human PD-1 ECD-Fc S159A): 0.8 ratio
binding result (human PD-1 ECD-Fc E136A): no binding (tested: 1 nM to 50 nM)
KD mutant/KD wild-type (human PD-1 ECD-Fc V64K): 1.3 ratio
KD mutant/KD wild-type (human PD-1 ECD-Fc E61A): 1.1 ratio
KD mutant/KD wild-type (human PD-1 ECD-Fc Q88A): 1.4 ratio
KD mutant/KD wild-type (human PD-1 ECD-Fc T98A): 0.9 ratio
KD mutant/KD wild-type (human PD-1 ECD-Fc G22A): 0.9 ratio
KD mutant/KD wild-type (human PD-1 ECD-Fc T76A): 0.3 ratio
KD mutant/KD wild-type (human PD-1 ECD-Fc P28L): 0.5 ratio
KD mutant/KD wild-type (human PD-1 ECD-Fc G90A): 0.8 ratio
KD mutant/KD wild-type (human PD-1 ECD-Fc T59A): 1 ratio
KD mutant/KD wild-type (human PD-1 ECD-Fc G103A): 0.8 ratio
KD mutant/KD wild-type (human PD-1 ECD-Fc T153A): 1 ratio
KD mutant/KD wild-type (human PD-1 ECD-Fc D77A): 0.3 ratio
KD mutant/KD wild-type (human PD-1 ECD-Fc P89A): 0.9 ratio
KD mutant/KD wild-type (human PD-1 ECD-Fc Q167A): 1 ratio
KD mutant/KD wild-type (human PD-1 ECD-Fc S87A): 0.9 ratio
KD mutant/KD wild-type (human PD-1 ECD-Fc S157A): 1 ratio
KD mutant/KD wild-type (human PD-1 ECD-Fc A149G): 1 ratio
KD mutant/KD wild-type (human PD-1 ECD-Fc G164A): 0.9 ratio
KD mutant/KD wild-type (human PD-1 ECD-Fc D48A): 0.6 ratio
KD mutant/KD wild-type (human PD-1 ECD-Fc P162A): 1.1 ratio
KD mutant/KD wild-type (human PD-1 ECD-Fc H155A): 1 ratio
KD mutant/KD wild-type (human PD-1 ECD-Fc S73A): 0.5 ratio
KD mutant/KD wild-type (human PD-1 ECD-Fc C93A): 0.9 ratio
KD mutant/KD wild-type (human PD-1 ECD-Fc A50G): 0.6 ratio
KD mutant/KD wild-type (human PD-1 ECD-Fc A163G): 1.1 ratio
KD mutant/KD wild-type (human PD-1 ECD-Fc N116A): 0.8 ratio
binding result (human PD-1 ECD-Fc K131A): no binding (tested: 1 nM to 50 nM)
KD mutant/KD wild-type (human PD-1 ECD-Fc S60A): 0.6 ratio
B1: 12865.17150 Fab (Fab, V domains shown)
VH: EVQLLESGGGLVQPGGSLRLSCAASGFDFSDHGMQWVRQAPGKGLEYVGVIDTTGRYTYYAPAVKGRATISRDNSKNTLYLQMNSLRAEDTAVYYCAKTTCVGGYLCNTVGSIDAWGQGTLVTVSS
VL: SYELTQDPAVSVALGQTVRITCSGGGSSSYYGWYQQKPGQAPVTVIYDDTNRPSGIPDRFSGSSSGNTASLTITGAQAEDEADYYCGGYEGSSHAGIFGSGTKVTVL
notes: monomeric Fab fragment
